# According to paper PMC3857803:
# B1: anti-METH single chain antibody fragment scFv6H4 (scFv, V domains shown)
# VH: EVQLQESGPSLVKPSQTLSLTCSVTGDSVTSGYWSWIRQFPGNKLDYMGYISYRGSTYYNPSLKSRISITRDTSKNQVYLQLKSVSSEDTATYYCSYFDSDDYAMEYWGQGTSVTVSG
# VL: QIVLTQSPAIMSASPGEKVTLTCSASSSVSSSHLYWYQQKPGSSPKLWIYSTSNLASGVPARFSGSGSGTSYSLTISSMEAEDAASYFCHQWSSFPFTFGSGTKLEIK
# Biological target: anti-METH single chain antibody fragment scFv6H4
# Assay: crystal structure; apo scFv6H4, hanging drop; protein 14 mg/ml in 5 mM HEPES, 100 mM NaCl, 1 mM NaN3, pH 8.0; reservoir 1.6 M ammonium sulfate, 240 mM imidazole malate, pH 8.0; space group P2(1)3, one molecule in the asymmetric unit; trimer formed by the crystallographic 3-fold axis, with a Ni2+ ion and a sulfate on the axis
binder,measurement,value
B1,stoichiometry N,3
